Measurements: the Immune Epitope Database (IEDB)

Experiments:
HLA-B*40:01 = experiment: IEDB peptide-MHC binding, purified MHC/direct/fluorescence; filed as Kd, often an IC50 or EC50 that approximates it; ≥ and ≤ were set here for values at or beyond the usual limits of such assays
HLA-B*18:01 = experiment: as above
HLA-A*31:01 = experiment: as above
HLA-A*11:01 = experiment: as above
HLA-B*58:01 = experiment: as above
HLA-A*02:12 [1] = experiment: as above; settings: source organism: Mycobacterium tuberculosis str. Haarlem
HLA-A*26:01 = experiment: as above; settings: source organism: Mycobacterium tuberculosis str. Haarlem
HLA-A*02:01 [2] = experiment: as above
HLA-A*02:11 = experiment: as above; settings: source organism: Mycobacterium tuberculosis str. Haarlem
HLA-B*51:01 = experiment: as above
HLA-B*39:01 = experiment: as above; settings: source organism: Mycobacterium tuberculosis str. Haarlem
HLA-B*27:05 = experiment: as above
HLA-B*57:01 = experiment: as above
HLA-A*03:01 = experiment: as above
HLA-A*69:01 = experiment: as above
HLA-B*15:01 = experiment: as above
HLA-B*15:17 = experiment: as above
HLA-A*01:01 [3] = experiment: as above
HLA-B*48:01 = experiment: as above
HLA-B*46:01 = experiment: as above
HLA-B*15:09 = experiment: as above; settings: source organism: Mycobacterium tuberculosis str. Haarlem
HLA-B*08:02 = experiment: as above
HLA-B*44:02 = experiment: as above; settings: source organism: Yellow fever virus
HLA-A*02:16 = experiment: IEDB peptide-MHC binding, purified MHC/competitive/fluorescence; filed as Kd, often an IC50 or EC50 that approximates it; ≥ and ≤ were set here for values at or beyond the usual limits of such assays; settings: source organism: Entamoeba histolytica HM-1:IMSS
HLA-A*02:01 [4] = experiment: as above
HLA-B*45:06 = experiment: as above
HLA-C*04:01 = experiment: as above
HLA-B*83:01 = experiment: as above
HLA-B*15:42 = experiment: as above
HLA-A*01:01 [5] = experiment: as above; settings: source organism: Mycobacterium tuberculosis variant bovis BCG str. Pasteur 1173P2
HLA-A*02:12 [6] = experiment: as above; settings: source organism: Giardia lamblia ATCC 50803
HLA-C*05:01 = experiment: IEDB peptide-MHC binding, purified MHC/direct/fluorescence; filed as Kd, often an IC50 or EC50 that approximates it; ≥ and ≤ were set here for values at or beyond the usual limits of such assays; settings: source organism: Rattus norvegicus
HLA-B*07:02 = experiment: as above; settings: source organism: Yellow fever virus
[7] = source organism: Burkholderia mallei
[8] = source organism: Yellow fever virus
[9] = source organism: West Nile virus
[10] = source organism: Mycobacterium tuberculosis C
[11] = source organism: Mycobacterium tuberculosis

Sequence APAKKAAAK has a Kd (HLA-B*40:01; [7]) of no less than 20 µM, a Kd (HLA-B*18:01; [7]) of no less than 20 µM and a Kd (HLA-A*31:01; [7]) of no less than 20 µM. It also gave a Kd (HLA-A*11:01; [7]) of no less than 20 µM, a Kd (HLA-B*58:01; [7]) of no less than 20 µM and a Kd (HLA-A*02:12 [1]) of no less than 20 µM. The Kd (HLA-A*26:01) was no less than 20 µM, the Kd (HLA-A*02:01 [2]; [7]) was no less than 20 µM and the Kd (HLA-A*02:11) was no less than 20 µM. It also gave a Kd (HLA-B*51:01; [7]) of no less than 20 µM, a Kd (HLA-B*39:01) of no less than 20 µM and a Kd (HLA-B*27:05; [7]) of no less than 20 µM. For the same sequence, the Kd (HLA-B*57:01; [7]) was no less than 20 µM, the Kd (HLA-A*03:01; [7]) was no less than 20 µM and the Kd (HLA-A*69:01; [7]) was no less than 20 µM. For the same sequence, the Kd (HLA-B*15:01; [7]) was no less than 20 µM, the Kd (HLA-B*15:17; [7]) was no less than 20 µM and the Kd (HLA-A*01:01 [3]; [7]) was no less than 20 µM. The Kd (HLA-B*48:01; [7]) was no less than 20 µM, the Kd (HLA-B*46:01; [7]) was no less than 20 µM and the Kd (HLA-B*15:09) was no less than 20 µM.
EVRLATMLF gave a Kd (HLA-B*40:01; [8]) of no less than 20 µM, a Kd (HLA-B*08:02; [8]) of no less than 20 µM and a Kd (HLA-A*31:01; [8]) of no less than 20 µM. It also gave a Kd (HLA-A*11:01; [8]) of no less than 20 µM, a Kd (HLA-B*58:01; [8]) of no less than 20 µM and a Kd (HLA-A*02:01 [2]; [8]) of no less than 20 µM. It also gave a Kd (HLA-B*44:02) of no less than 20 µM, a Kd (HLA-B*27:05; [8]) of no less than 20 µM and a Kd (HLA-B*57:01; [8]) of no less than 20 µM. The Kd (HLA-A*03:01; [8]) was no less than 20 µM, the Kd (HLA-A*01:01 [3]; [8]) was no less than 20 µM and the Kd (HLA-B*48:01; [8]) was no less than 20 µM. For the same sequence, the Kd (HLA-B*46:01; [8]) was no less than 20 µM.
For FHFNPLPNV, the Kd (HLA-A*02:16) was 0.129 µM and the Kd (HLA-A*02:01 [4]; source organism: Entamoeba histolytica HM-1:IMSS) was 0.115 µM.
With REWFMDLNL the Kd (HLA-B*45:06; [9]) was no less than 5 µM, the Kd (HLA-C*04:01; [9]) was no less than 5 µM and the Kd (HLA-B*83:01; [9]) was no less than 5 µM. For the same sequence, the Kd (HLA-B*15:42; [9]) was no less than 5 µM and the Kd (HLA-B*18:01; [9]) was 1.36 µM.
RLYELIGSV gave a Kd (HLA-B*45:06; [10]) of no less than 5 µM, a Kd (HLA-C*04:01; [10]) of no less than 5 µM and a Kd (HLA-B*83:01; [10]) of no less than 5 µM. The Kd (HLA-B*15:42; [10]) was no less than 5 µM.
In the case of SPREECGVF, the Kd (HLA-A*01:01 [5]) is reported as no less than 20 µM, the Kd (HLA-B*40:01; [11]) is reported as no less than 20 µM and the Kd (HLA-B*18:01; [11]) is reported as no less than 20 µM. For the same sequence, the Kd (HLA-B*08:02; source organism: Mycobacterium tuberculosis str. Haarlem) was no less than 20 µM, the Kd (HLA-A*31:01; [11]) was no less than 20 µM and the Kd (HLA-A*11:01; [11]) was no less than 20 µM. For the same sequence, the Kd (HLA-B*58:01; [11]) was no less than 20 µM, the Kd (HLA-A*26:01) was no less than 20 µM and the Kd (HLA-A*02:01 [2]; [11]) was no less than 20 µM. It also gave a Kd (HLA-B*51:01; [11]) of no less than 20 µM, a Kd (HLA-B*27:05; [11]) of no less than 20 µM and a Kd (HLA-B*57:01; [11]) of no less than 20 µM. For the same sequence, the Kd (HLA-A*03:01; [11]) was no less than 20 µM, the Kd (HLA-A*69:01; [11]) was no less than 20 µM and the Kd (HLA-B*15:01; [11]) was 1.2 µM. The Kd (HLA-B*15:17; [11]) was no less than 20 µM, the Kd (HLA-B*48:01; [11]) was no less than 20 µM and the Kd (HLA-B*46:01; [11]) was no less than 20 µM. For the same sequence, the Kd (HLA-B*15:09) was no less than 20 µM.
Sequence SVFQGALFA has a Kd (HLA-A*02:12 [6]) of 11 µM and a Kd (HLA-A*02:01 [4]; source organism: Giardia lamblia ATCC 50803) of 1.89 µM.
For YFDPANGKF, the Kd (HLA-C*04:01; source organism: Rattus norvegicus) was 0.0015 µM, the Kd (HLA-A*11:01; source organism: Homo sapiens) was no less than 44.1 µM and the Kd (HLA-A*02:01 [2]; source organism: Homo sapiens) was no less than 22.7 µM. For the same sequence, the Kd (HLA-A*69:01; source organism: Homo sapiens) was no less than 28.4 µM, the Kd (HLA-A*01:01 [3]; source organism: Homo sapiens) was 3.6 µM and the Kd (HLA-C*05:01) was 0.109 µM.
In the case of YFHKRDMRL, the Kd (HLA-B*40:01; [8]) is reported as no less than 20 µM, the Kd (HLA-B*18:01; [8]) is reported as no less than 20 µM and the Kd (HLA-B*08:02; [8]) is reported as 4.63 µM. The Kd (HLA-A*11:01; [8]) was no less than 20 µM, the Kd (HLA-B*58:01; [8]) was no less than 20 µM and the Kd (HLA-B*07:02) was no less than 20 µM. It also gave a Kd (HLA-B*44:02) of no less than 20 µM, a Kd (HLA-B*27:05; [8]) of no less than 20 µM and a Kd (HLA-B*57:01; [8]) of no less than 20 µM. The Kd (HLA-A*03:01; [8]) was no less than 20 µM, the Kd (HLA-A*69:01; [8]) was no less than 20 µM and the Kd (HLA-B*15:01; [8]) was no less than 20 µM. For the same sequence, the Kd (HLA-A*01:01 [3]; [8]) was no less than 20 µM, the Kd (HLA-B*48:01; [8]) was no less than 20 µM and the Kd (HLA-B*46:01; [8]) was no less than 20 µM.
